Results taken from US20250129136A1.

Legend:
hPBMC = assay: flow cytometry, percent of stained hPBMC against the concentration of Alexa647-labeled hDsg3-hFc
[1] = target: AK23 antibody (anti-mouse Dsg3, from AK23 hybridoma); assay: cell-based or functional assay
[2] = target: F779 patient-derived anti-Dsg3 antibody on Nalm-6 cells; assay: cell-based or functional assay
[3] = target: PVB28 patient-derived anti-Dsg3 antibody on Nalm-6 cells; assay: cell-based or functional assay
[4] = target: F779 patient-derived anti-Dsg3 antibody on Nalm-6 cells; assay: flow cytometry on F779 cells, titration of Alexa647-labeled protein
[5] = target: Fcγ receptor of mouse macrophages (RAW264.7 cells) (mouse); assay: flow cytometry on Raw macrophage cells, titration of labeled protein
[6] = target: Fcγ receptor of mouse macrophages (RAW264.7 cells) (mouse); assay: flow cytometry dot plot of RAW264.7 macrophage cells, 10 nM mDsg3-IgG2a-Alexa647; the same quadrant at 0 nM prints 1.28
[7] = target: F779 patient-derived anti-Dsg3 antibody on Nalm-6 cells; assay: flow cytometry, F779 cells incubated with varying concentrations of mDsg3-mFc (IgG2a), percent of stained F779 cells [top]

EC50 (hPBMC)	EC50 [4]	EC50 [5]	number in the Alexa647-positive upper right quadrant at 10 nM (percent of cells) [6]	EC50 [7]	Molecule	killing of AK23 target cells co-cultured with RAW264.7 macrophages, 10 nM construct, 24 hours [1]	killing of F779 target cells co-cultured with RAW264.7 macrophages, 10 nM construct, 24 hours [2]	killing of F779 target cells co-cultured with RAW264.7 macrophages, 10 nM construct, 48 hours [2]	killing of F779 target cells with RAW264.7 macrophages (Effector:Target 10:1), 1 nM construct, 24 hours [2]	killing of F779 target cells with RAW264.7 macrophages (Effector:Target 10:1), 1 nM construct, 48 hours [2]	killing of targeted cells with RAW264.7 macrophages at 10 and 100 nM construct [2]	killing of targeted cells with RAW264.7 macrophages at 10 and 100 nM construct [3]
1.7 nM					hDsg3(EC13)-hFc (Fc fusion)							
	2.3 nM	2.3 nM	98.6%	2.6 nM	mDsg3(EC13)-mFc (Fc fusion, Alexa Fluor 647 installed site-specifically at the C-terminus by sortase (Gly3-Alexa647 on the LPETG motif) for the flow cytometry stainings) EWVKFAKPCREREDNSRRNPIAKITSDFQKNQKITYRISGVGIDQPPFGIFVVDPNNGDINITAIVDREETPSFLITCRALNALGQDVERPLILTVKILDVNDNPPIFSQTIFKGEIEENSASNSLVMILNATDADEPNHMNSKIAFKIVSQEPAGMSMFLISRNTGEVRTLTSSLDREQISSYHLVVSGADNDGTGLSTQCECSIKIKDVNDNFPVLRESQYSARIEENTLNAELLRFQVTDWDEEYTDNWLAVYFFTSGNEGNWFEIETDPRTNEGILKVVKALDYEQVQSMQFSIAVRNKAEFHQSVISQYRVQSTPVTIQVIDVREGISGGGGSGGSEPRGPTIKPCPPCKCPAPNLLGGPSVFIFPPKIKDVLMISLSPIVTCVVVDVSEDDPDVQISWFVNNVEVHTAQTQTHREDYNSTLRVVSALPIQHQDWMSGKEFKCKVNNKDLPAPIERTISKPKGSVRAPQVYVLPPPEEEMTKKQVTLTCMVTDFMPEDIYVEWTNNGKTELNYKNTEPVLDSDGSYFMYSKLRVEKKNWVERNSYSCSVVHEGLHNHHTTKSFSRTPGKGGGGSGGGGSDYKDDDDKLPETGGHHHHHH	60%	65%	94%	60%	80%	90%	90%
